For experiment [1], the target named is T1, AβpE3-40 monomer (UniProt P05067 674-711, pyroglutamate at position 3 (N-terminal residue)).
T1 construct: range 3-40 (Aβ numbering); Synthetic peptide (Bachem/Anaspec), verified monomeric by SEC; also called monomeric AβpE3-40
Nature of the experiment: SPR, antibody immobilised, monomer injected, 1:1 fit.

Experiment [2] addresses T2, truncated hTfR1 of SEQ ID NO:122 (human, UniProt P02786 122-760).
T2 construct: also called human TfR1; Human TfR1
Nature of the experiment: SPR, FLAG-captured TfR1, bispecific injected, 1:1 fit. The procedure:
(§1) Binding of the purified bispecific binding molecules produced in Example 47 to human and cynomolgus TfR1 was evaluated using SPR on a Biacore 8K instrument (Cytiva). […] The interaction was measured using the single cycle kinetics method with a contact time of 120 s at a flow rate of 30 μl/min followed by a dissociation time of 600 s. Regeneration of the surface between cycles was done by injecting 10 mM glycine-HCl, pH 1.7. The binding data was fitted to a 1:1 interaction model. The tested molecules were diluted in HBS-EP+ (Cytiva, #BR100669). Experiments were performed at 25° C.
For orientation: Surface plasmon resonance follows binding to a sensor surface in real time, without labels.

Experiment [3] has as its target T3, truncated cTfR1 of SEQ ID NO:123 (cynomolgus monkey, UniProt Q5RDH6 122-760 (Pongo abelii entry)).
T3 construct: also called cynomolgus TfR1
T3 chain: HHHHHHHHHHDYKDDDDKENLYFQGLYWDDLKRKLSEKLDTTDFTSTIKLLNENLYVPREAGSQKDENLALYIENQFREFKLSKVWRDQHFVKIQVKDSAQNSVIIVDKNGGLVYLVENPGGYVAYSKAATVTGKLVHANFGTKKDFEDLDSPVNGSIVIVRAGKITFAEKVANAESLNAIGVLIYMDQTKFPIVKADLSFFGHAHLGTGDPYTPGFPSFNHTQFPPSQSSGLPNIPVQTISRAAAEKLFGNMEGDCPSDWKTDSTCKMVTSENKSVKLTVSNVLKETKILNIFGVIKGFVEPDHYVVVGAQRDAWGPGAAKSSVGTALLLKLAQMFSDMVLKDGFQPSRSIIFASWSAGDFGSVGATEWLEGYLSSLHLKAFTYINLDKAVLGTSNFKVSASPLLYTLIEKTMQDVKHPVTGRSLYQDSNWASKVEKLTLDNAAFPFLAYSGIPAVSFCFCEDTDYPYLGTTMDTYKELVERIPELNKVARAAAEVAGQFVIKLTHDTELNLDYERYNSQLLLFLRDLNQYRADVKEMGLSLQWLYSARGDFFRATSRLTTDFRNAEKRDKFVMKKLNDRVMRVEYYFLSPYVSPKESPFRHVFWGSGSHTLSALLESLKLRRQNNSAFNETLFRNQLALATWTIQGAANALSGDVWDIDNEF
The experiment is described as above. The procedure:
as §1

T1 sequence (P05067 674-711): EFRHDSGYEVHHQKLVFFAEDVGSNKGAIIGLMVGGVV

B1: BA007 (bispecific antibody, human IgG1, kappa)
light: EIVLTQSPLSLSVTLGQSASISCRSSQSLLDSNGKTYLHWFILRPGQSPRRLIYLVSILDSGVPDRFSGSGSGTDFTLKISRVEAEDVGVYYCVQGTHFPFTFGSGTKLEIKRTVAAPSVFIFPPSDEQLKSGTASVVCLLNNFYPREAKVQWKVDNALQSGNSQESVTEQDSKDSTYSLSSTLTLSKADYEKHKVYACEVTHQGLSSPVTKSFNRGEC
heavy 1: not shown
heavy 2: EVQLVQSGAEVVKPGASVRLSCKASGYSFTGFTMNWVRQALGQGLEWMGLINPYNGVTTYNQKFKGRLTMTRDMSTRTVYMDLSSLTYEDTAVYYCTREGNWEGVYWGQGTLVTVSSASTKGPSVFPLAPSSKSTSGGTAALGCLVKDYFPEPVTVSWNSGALTSGVHTFPAVLQSSGLYSLSSVVTVPSSSLGTQTYICNVNHKPSNTKVDKKVEPKSCDKTHTCPPCPAPELLGGPSVFLFPPKPKDTLMISRTPEVTCVVVDVSHEDPEVKFNWYVDGVEVHNAKTKPREEQYNSTYRVVSVLTVLHQDWLNGKEYKCAVSNKALPAPIEKTISKAKGQPREPQVYTLPPCRDELTKNQVSLWCLVKGFYPSDIAVEWESNGQPENNYKTTPPVLDSDGSFFLYSKLTVDKSRWQQGNVFSCSVMHEALHNHYTQKSLSLSPGGGGGSGGGGSGGGGSGGGGSDIQMTQSPSSVSASVGDRVTITCKSSQSLLYSTNQKNYLAWYQQKPGKAPKLLIYWASTRESGVPSRFSGSGSGTDFTLTISSLQPEDFATYYCQQYFIYPRTFGCGTKVEIKGGGGSGGGGSGGGGSGGGGSEVQLVQSGAEVKKPGSSVKVSCKASGYIFTDYNMDWVRQAPGQCLEWIGDINPDADTTSYNEKFKGRATLTVDKSTSTAYMELSSLRSEDSAVYYCARGGYSGSSYYHPMDYWGQGTLVTVKS
In experiment [1], B1 showed a Kd of 2.1 nM, a koff of 0.00012 s⁻¹ and a kon of 54000 M⁻¹ s⁻¹. For the same molecule, in experiment [2], the Kd amounted to 186 nM, the koff was 0.004 s⁻¹ and the on-rate (kon) is 22000 M⁻¹ s⁻¹. In experiment [3], the Kd came out at 565 nM, the koff is 0.011 s⁻¹ and the kon stood at 19000 M⁻¹ s⁻¹.

B2: BA006 (bispecific antibody, human IgG1, kappa)
light: EIVLTQSPLSLSVTLGQSASISCRSSQSLLDSNGKTYLHWFILRPGQSPRRLIYLVSILDSGVPDRFSGSGSGTDFTLKISRVEAEDVGVYYCVQGTHFPFTFGSGTKLEIKRTVAAPSVFIFPPSDEQLKSGTASVVCLLNNFYPREAKVQWKVDNALQSGNSQESVTEQDSKDSTYSLSSTLTLSKADYEKHKVYACEVTHQGLSSPVTKSFNRGEC
heavy 1: not shown
heavy 2: EVQLVQSGAEVVKPGASVRLSCKASGYSFTGFTMNWVRQALGQGLEWMGLINPYNGVTTYNQKFKGRLTMTRDMSTRTVYMDLSSLTYEDTAVYYCTREGNWEGVYWGQGTLVTVSSASTKGPSVFPLAPSSKSTSGGTAALGCLVKDYFPEPVTVSWNSGALTSGVHTFPAVLQSSGLYSLSSVVTVPSSSLGTQTYICNVNHKPSNTKVDKKVEPKSCDKTHTCPPCPAPELLGGPSVFLFPPKPKDTLMISRTPEVTCVVVDVSHEDPEVKFNWYVDGVEVHNAKTKPREEQYNSTYRVVSVLTVLHQDWLNGKEYKCAVSNKALPAPIEKTISKAKGQPREPQVYTLPPCRDELTKNQVSLWCLVKGFYPSDIAVEWESNGQPENNYKTTPPVLDSDGSFFLYSKLTVDKSRWQQGNVFSCSVMHEALHNHYTQKSLSLSPGGGGGSGGGGSGGGGSGGGGSDIQMTQSPSSVSASVGDRVTITCKSSQSLLYSTNQKNYLAWYQQKPGKAPKLLIYWASTRESGVPSRFSGSGSGTDFTLTISSLQPEDFATYYCQQYFIYPRTFGCGTKVEIKGGGGSGGGGSGGGGSGGGGSEVQLVQSGAEVKKPGSSVKVSCKASGYIFTDYNMDWVRQAPGQCLEWIGDINPDADTTSYNEKFKGRATLTVDKSTSTAYMELSSLRSEDTAVYYCARGGYSGSSYYHPMDYWGQGTLVTVKS
In the case of B2, the values for the Kd in experiment [1], in experiment [2] and in experiment [3] were 2.3 nM, 189 nM and 552 nM, respectively. The koff stood at 0.00012 s⁻¹ in experiment [1], 0.0041 s⁻¹ in experiment [2] and 0.011 s⁻¹ in experiment [3]. Also, the kon in experiment [1] came to 52000 M⁻¹ s⁻¹; in experiment [2], 22000 M⁻¹ s⁻¹; in experiment [3], 20000 M⁻¹ s⁻¹.

What is called Kd is the constant that tells how readily two partners part at equilibrium. In general, koff refers to the rate constant with which the complex falls apart. High values mean a short-lived complex, low ones a long-lived complex. Broadly, the kon is a measure of how fast the partners come together.

The values are drawn from patent US20250388664A1 (BIOARCTIC, published 2025).
